Molecular target: the molecule itself
Test: high-speed atomic force microscopy

B1: bacterial glycerol uptake facilitator GlpF (natural protein)
chain: MSQTSTLKGQSIAEFLGTGLLIFFGVGSVAALKVAGASFGQWEISVIWGLGVAMAIYLTAGVSGAHLNPAVTIALWLFASFDKRKVIPFIVSQVAGAFSAAALVYGLYYNLFFDFEQTHHIVRGSVESVDLAGTFSTYPNPHINFVQAFAVEMVITAILMGLILALTDDGNGVPRGPLAPLLIGLLIAVIGASMGPLTGFAMNPARDFGPKVFAWLAGWGNVAFTGGRDIPYFLVPLFGPIVGAIVGAFAYRKLIGRHLPCDICVVEEKETTTPSEQKASL
modifications: Atto 488 maleimide on cysteines (C261 and C264)
  stoichiometry N: 4
